Measured values: patent CN102127167A
Several values for one entry are separate records, joined by “and”; a condition that tells them apart may be missing. Equal entries are not always repeated.

Experiments:
[1] = target: 人TNFα (human) (UniProt P01375); assay: SPR (Biacore), TNFa coupled to the chip, antibody as analyte
[2] = target: 人TNFα (human) (UniProt P01375); assay: cell-based or functional assay

Sequence of UniProt P01375 (P01375 77-233 limits assumed): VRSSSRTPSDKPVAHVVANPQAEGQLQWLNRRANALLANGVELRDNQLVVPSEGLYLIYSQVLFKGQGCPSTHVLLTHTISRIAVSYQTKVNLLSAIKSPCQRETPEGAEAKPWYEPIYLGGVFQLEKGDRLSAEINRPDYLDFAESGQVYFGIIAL

Question: Which Kd [1] does the source give for humira (antibody) here?
Answer: 2.01 nM

Question: What about the IC50(pM), L929细胞保护试验 [2] of the same substance?
Answer: 1.37 pM and 2.52 pM and 2.32 pM

Question: And the IC50(pM), L929细胞保护试验, 平均值 [2]?
Answer: 2.42 pM
